From patent publication US20260250318A1, “COMPOSITIONS AND METHODS FOR CROSSING THE BLOOD BRAIN BARRIER” (VOYAGER THERAPEUTICS, INC., priority 2022, published 2026) come the findings set out here.

Where two headings read alike, the source gives them in different places.

Test [1] deals with T1, isoform 3 (alkaline phosphatase, intestinal (ALPLI)) (Homo sapiens, UniProt P09923).
T1 construct: expressed in transfected cells; host or cells: HEK 293T
T1 sequence (P09923 20-503): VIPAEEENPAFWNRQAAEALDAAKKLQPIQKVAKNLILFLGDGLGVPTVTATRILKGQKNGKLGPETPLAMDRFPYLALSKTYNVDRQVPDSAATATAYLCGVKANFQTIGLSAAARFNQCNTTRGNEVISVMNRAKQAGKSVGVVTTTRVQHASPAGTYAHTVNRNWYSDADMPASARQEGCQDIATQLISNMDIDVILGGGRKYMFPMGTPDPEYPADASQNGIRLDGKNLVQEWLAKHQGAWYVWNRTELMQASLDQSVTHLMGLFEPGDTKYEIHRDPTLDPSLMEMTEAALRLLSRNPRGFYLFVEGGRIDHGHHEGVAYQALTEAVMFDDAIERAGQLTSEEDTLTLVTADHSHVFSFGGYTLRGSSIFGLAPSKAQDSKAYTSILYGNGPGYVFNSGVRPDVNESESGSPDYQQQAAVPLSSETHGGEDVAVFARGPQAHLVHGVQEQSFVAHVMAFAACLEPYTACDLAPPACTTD
The test is described as follows: Transduction assay in HEK 293T cells expressing isoform 3. Particulars: for Luciferase Activity (RLU): Table 30, Isoform 3 transfected cells; for increase in transduction in cells expressing isoform 3: luciferase activity (RLU). The format is cell-based. The source says: Three isoforms of ALPL exist, isoform 1 (Alkaline phosphatase, placental-like 2 (ALPPL2), NM_031313, which is incorporated by reference herein), isoform 2 (alkaline phosphatase, placental (ALPP), NM_001632, which is incorporated by reference herein), and isoform 3 (alkaline phosphatase, intestinal (ALPLI), NM_001631, which is incorporated by reference herein), that can also be expressed on cell surfaces via a GPI-anchor. Isoform 1 is 56.25% identical and 72.54% similar (gaps: 4.17%) to ALPL, isoform 2 is 54.96% identical and 71.37% similar (gaps: 2.29%) to ALPL, and isoform 3 is 55.98% identical and 72.11% similar (gaps: 3.04%) to ALPL. The transduction assay described above was repeated with the three isoforms. HEK 293T cells were transfected via calcium phosphate transfection with a plasmid expressing ALPL, isoform 1 of ALPL, isoform 2 of ALPL, isoform 3 of ALPL, an AAVR positive control, or a pCMV6 negative control. […] At 24-hours post-transduction, luciferase activity (RLU) was measured to quantify AAV cellular transduction.

The test system of test [2] is HEK 293T cells transfected with pCMV6 negative control. The format is cell-based. Particulars: for Luciferase Activity (fold change relative to pCMV6 transfected cells): pCMV6 transfected cells (negative control, reference); for Luciferase Activity (RLU): Table 30, pCMV6 transfected cells. Here is the method:
Briefly, a transduction assay was performed in that HEK 293T cells were transfected via calcium phosphate transfection with a plasmid expressing ALPL, an AAVR positive control, or a pCMV6 negative control (250 ng or 500 ng of plasmid). AAVR is a universal AAV entry factor involved in AAV transduction. […] At 24-hours post-transduction, GFP expression and luciferase activity were measured to quantify and observe AAV cellular transduction. […] The TTM-002, TTM-006, TTM-018, and TTM-019 capsid variants all comprised the SPH motif immediately subsequent to position 455, numbered relative to SEQ ID NO: 138 and a positive residue in one of the next three residues subsequent to the SPH motif.
Three isoforms of ALPL exist, isoform 1 (Alkaline phosphatase, placental-like 2 (ALPPL2), NM_031313, which is incorporated by reference herein), isoform 2 (alkaline phosphatase, placental (ALPP), NM_001632, which is incorporated by reference herein), and isoform 3 (alkaline phosphatase, intestinal (ALPLI), NM_001631, which is incorporated by reference herein), that can also be expressed on cell surfaces via a GPI-anchor. […] The transduction assay described above was repeated with the three isoforms. HEK 293T cells were transfected via calcium phosphate transfection with a plasmid expressing ALPL, isoform 1 of ALPL, isoform 2 of ALPL, isoform 3 of ALPL, an AAVR positive control, or a pCMV6 negative control. At 24 hours post-transfection, the HEK 293T cells expressing the ALPL receptor were transduced with an AAV particle comprising the TTM-001 capsid variant or the TTM-002 capsid variant, expressing a Luc2-GFP payload. At 24-hours post-transduction, luciferase activity (RLU) was measured to quantify AAV cellular transduction.
To determine if deletion of the endoplasmic reticulum (ER) localization signal of ALPL affected transduction of the TTM-001 and TTM-002 capsid variants, HEK 293T cells were transfected via calcium phosphate transfection with a plasmid expressing ALPL, ALP with a deletion of the ER localization signal (ALPL transcript variant 2 that lacks the ER signal (NM_001127501, which is incorporated by reference herein)), or a pCMV6 negative control. At 24 hours post-transfection, the HEK 293T cells expressing the ALPL receptor were transduced with an AAV particle comprising the TTM-001 capsid variant, the TTM-002 capsid variant, or an AAV9 capsid control, expressing a GFP payload. At 24-hours post-transduction, luciferase activity (RLU) was measured to quantify AAV cellular transduction. Data was normalized to fold change in luciferase activity (RLU) compared to the pCMV6 control.
To determine if the TTM-001 and TTM-002 capsid variants could bind to both the human ALPL protein (NM_000478.6, which is incorporated by reference herein) and the mouse ALPL ortholog (NM_001287172.1, which is incorporated by reference herein), HEK 293T cells were transfected via calcium phosphate transfection with a plasmid expressing human ALPL, the murine ortholog of ALPL, or a pCMV6 negative control. At 24 hours post-transfection, the HEK 293T cells expressing the ALPL receptor were transduced with an AAV particle comprising the TTM-001 capsid variant, the TTM-002 capsid variant, or an AAV9 control capsid protein, expressing a Luc2-GFP payload. At 24-hours post-transduction, luciferase activity (RLU) was measured to quantify AAV cellular transduction.
AAV entry factor involved in AAV transduction), or a pCMV6 negative control.

Setting [3] is: Table 33, Cells transfected with pCMV6 (reference).
Where [4] appears, read: Table 34, Cells transfected with pCMV6 (reference).

B1: TTM-001: AAV9 capsid variant comprising SPHSKA (SEQ ID NO: 941) in loop IV (protein)
chain 1: MAADGYLPDWLEDNLSEGIREWWALKPGAPQPKANQQHQDNARGLVLPGYKYLGPGNGLDKGEPVNAADAAALEHDKAYDQQLKAGDNPYLKYNHADAEFQERLKEDTSFGGNLGRAVFQAKKRLLEPLGLVEEAAKTAPGKKRPVEQSPQEPDSSAGIGKSGAQPAKKRLNFGQTGDTESVPDPQPIGEPPAAPSGVGSLTMASGGGAPVADNNEGADGVGSSSGNWHCDSQWLGDRVITTSTRTWALPTYNNHLYKQISNSTSGGSSNDNAYFGYSTPWGYFDFNRFHCHFSPRDWQRLINNNWGFRPKRLNFKLFNIQVKEVTDNNGVKTIANNLTSTVQVFTDSDYQLPYVLGSAHEGCLPPFPADVFMIPQYGYLTLNDGSQAVGRSSFYCLEYFPSQMLRTGNNFQFSYEFENVPFHSSYAHSQSLDRLMNPLIDQYLYYLSKTINGSGSPHSKAQNQQTLKFSVAGPSNMAVQGRNYIPGPSYRQQRVSTTVTQNNNSEFAWPGASSWALNGRNSLMNPGPAMASHKEGEDRFFPLSGSLIFGKQGTGRDNVDADKVMITNEEEIKTTNPVATESYGQVATNHQSAQAQAQTGWVQNQGILPGMVWQDRDVYLQGPIWAKIPHTDGNFHPSPLMGGFGMKHPPPQILIKNTPVPADPPTAFNKDKLNSFITQYSTGQVSVEIEWELQKENSKRWNPEIQYTSNYYKSNNVEFAVNTEGVYSEPRPIGTRYLTRNL
chain 2: GSGSPHSKAQNQQT
Consider B1, for which the “Luciferase Activity (RLU)” value is 3,300 RLU in test [1] and 5,212 RLU in test [2]. The “increase in transduction in cells expressing isoform 3” value in test [1] was “did not occur”. The “Luciferase Activity (fold change relative to pCMV6 transfected cells)” value in test [2] (Table 27) worked out at 1 fold. Further, the “Fold change in luciferase activity relative to the pCMV6 control cells” value in test [2] (setting [3]) and in test [2] (setting [4]) was 1 fold throughout.

B2: TTM-002: AAV9 capsid variant comprising HDSPHK (SEQ ID NO: 2) in loop IV (protein)
chain 1: MAADGYLPDWLEDNLSEGIREWWALKPGAPQPKANQQHQDNARGLVLPGYKYLGPGNGLDKGEPVNAADAAALEHDKAYDQQLKAGDNPYLKYNHADAEFQERLKEDTSFGGNLGRAVFQAKKRLLEPLGLVEEAAKTAPGKKRPVEQSPQEPDSSAGIGKSGAQPAKKRLNFGQTGDTESVPDPQPIGEPPAAPSGVGSLTMASGGGAPVADNNEGADGVGSSSGNWHCDSQWLGDRVITTSTRTWALPTYNNHLYKQISNSTSGGSSNDNAYFGYSTPWGYFDFNRFHCHFSPRDWQRLINNNWGFRPKRLNFKLFNIQVKEVTDNNGVKTIANNLTSTVQVFTDSDYQLPYVLGSAHEGCLPPFPADVFMIPQYGYLTLNDGSQAVGRSSFYCLEYFPSQMLRTGNNFQFSYEFENVPFHSSYAHSQSLDRLMNPLIDQYLYYLSKTINGHDSPHKSGQNQQTLKFSVAGPSNMAVQGRNYIPGPSYRQQRVSTTVTQNNNSEFAWPGASSWALNGRNSLMNPGPAMASHKEGEDRFFPLSGSLIFGKQGTGRDNVDADKVMITNEEEIKTTNPVATESYGQVATNHQSAQAQAQTGWVQNQGILPGMVWQDRDVYLQGPIWAKIPHTDGNFHPSPLMGGFGMKHPPPQILIKNTPVPADPPTAFNKDKLNSFITQYSTGQVSVEIEWELQKENSKRWNPEIQYTSNYYKSNNVEFAVNTEGVYSEPRPIGTRYLTRNL
chain 2: GHDSPHKSGQNQQT
In the case of B2, the “Luciferase Activity (RLU)” value in test [1] is reported as 2,074 RLU; in test [2], 2,894 RLU. In test [1], the “increase in transduction in cells expressing isoform 3” value is “did not occur”. The “Luciferase Activity (fold change relative to pCMV6 transfected cells)” value in test [2] (Table 27) and in test [2] (Table 28) was 1 fold throughout. Further, the “Fold change in luciferase activity relative to the pCMV6 control cells” value is 1 fold in test [2] (setting [3]); 1 fold in test [2] (setting [4]); 1.0 fold in test [2] (Table 35, Receptor pCMV6 (reference)).
